These results are taken from patent US20230287118A1 (published 2023).

Experiment [1] concerns the target T1, human CD20 (human, UniProt P11836 1-297).
T1 sequence (looked up): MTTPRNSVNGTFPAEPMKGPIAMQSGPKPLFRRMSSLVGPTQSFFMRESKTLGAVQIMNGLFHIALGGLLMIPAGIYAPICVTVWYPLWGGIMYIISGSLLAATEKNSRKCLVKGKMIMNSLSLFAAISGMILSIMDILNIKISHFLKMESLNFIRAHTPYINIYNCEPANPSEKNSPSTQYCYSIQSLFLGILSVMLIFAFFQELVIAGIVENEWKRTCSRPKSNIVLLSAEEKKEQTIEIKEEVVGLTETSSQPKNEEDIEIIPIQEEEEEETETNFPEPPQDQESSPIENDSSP
The experiment can be described thus: cell-based or functional assay.

Experiment [2] has as its target T2, human CD3 (human, UniProt P07766 23-207). The experiment can be described thus: cell-based or functional assay.
The target of experiment [3] is T1, human CD20. Description: flow cytometry, AlexaFluor488-labelled TCB on CD20-expressing B cells among human PBMCs. The protocol: (§1) The crossreactivity of the anti-CD3/anti-CD20 TCB antibody shown as molecule “B” above was evaluated by assessing binding to human and cynomolgus monkey CD20-expressing B cells and CD3-expressing CD4 and CD8 T cells. Briefly, heparinized human and cynomolgus monkey blood from healthy donors was used to isolate PBMCs by density centrifugation. Isolated PBMCs were counted, checked for viability and resuspended at 4×10⁶ cells/ml in FACS buffer (100 μl PBS 0.1% BSA). 100 μl of cell suspension (containing 0.4×10⁶ cells) were plated into 96-well_U-bottom plate and centrifuged (420×g, 4 min). After removal of the supernatants, PBMCs were incubated for 30 min at 4° C. with increasing concentrations of the CD20 TCB-AlexaFlour488 (200 pM-200 nM), washed twice with cold PBS 0.1% BSA, re-incubated for further 30 min at 4° C. with human/cynomolgus cross-reactive antibodies: anti-CD19 (in house, clone 8B8)-AlexaFluor647, anti-CD4 (BD, #552838, clone L200)-PerCPCy5.5 and anti-CD8 (BD, #555367, clone RPA-T8)-PE.

For a further experiment, the target named is T3, cynomolgus monkey CD20 (cynomolgus monkey, UniProt M4ZHZ6 1-297).
T3 construct: whole, on cells; also called cynomolgus CD20
T3 sequence: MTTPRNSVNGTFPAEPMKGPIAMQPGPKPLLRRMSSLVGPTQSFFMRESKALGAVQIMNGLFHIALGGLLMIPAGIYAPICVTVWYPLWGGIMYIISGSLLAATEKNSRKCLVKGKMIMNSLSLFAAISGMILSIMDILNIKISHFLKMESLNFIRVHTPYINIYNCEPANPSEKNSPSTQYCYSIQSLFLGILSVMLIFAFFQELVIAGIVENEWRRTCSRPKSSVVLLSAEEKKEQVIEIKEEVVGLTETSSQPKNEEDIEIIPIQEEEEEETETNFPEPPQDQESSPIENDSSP
The experiment can be described thus: flow cytometry, AlexaFluor488-labelled TCB on CD20-expressing B cells among cynomolgus monkey PBMCs. The protocol: as §1
On the technique in general: Flow cytometry measures light scatter and fluorescence of single cells or particles in a stream.

The target in experiment [4] is T1, human CD20. Description: cell-based or functional assay. This is another data set of the same source.
For experiment [5], the target named is T1, human CD20. Description: flow cytometry on CD20-expressing WSU DLCL2 cells, PE anti-human Fc secondary antibody. How it is done:
(§2) The binding of the anti-CD3/anti-CD20 TCB antibody shown as molecule “B” above was tested on human CD20-expressing Diffuse Large-Cell B Cell Lymphoma (DLBCL) cell line (WSU DLCL2, 0.5-1×10⁶ CD20 binding sites) and CD3-expressing immortalized T lymphocyte line (Jurkat). Briefly, cells were harvested, counted, checked for viability and resuspended at 1.5×10⁶ cells/ml in FACS buffer (PBS 0.1% BSA).
(§3) Binding curves and the EC50 values related to binding were calculated using GraphPadPrism5.

The target in experiment [6] is T1, human CD20. The experiment can be described thus: cell-based or functional assay. The source holds these as a separate data set.
For experiment [7], the target named is T2, human CD3. The experiment can be described thus: flow cytometry on CD3-expressing Jurkat cells, PE anti-human Fc secondary antibody. How it is done: as §2, §3
Experiment [8] has as its target T1, human CD20. Description: cell-based or functional assay. This is another data set of the same source.
The target in another experiment is human Her3 (human, UniProt P21860 20-1342). Description: cell-based or functional assay.
Experiment [9] has as its target T2, human CD3. The experiment can be described thus: cell-based or functional assay. This is another data set of the same source.
Experiment [10] has as its target T4, human MCSP (melanoma-associated chondroitin sulfate proteoglycan, chondroitin sulfate proteoglycan 4) (human, UniProt Q6UVK1 30-2322). Description: cell-based or functional assay.
Experiment [11] concerns the target T2, human CD3. Description: flow cytometry on Jurkat-NFAT cells.
Experiment [12] concerns the target T4, human MCSP (melanoma-associated …). The experiment can be described thus: flow cytometry on MCSP-expressing MV-3 cells.

T4 sequence (Q6UVK1 30-2322): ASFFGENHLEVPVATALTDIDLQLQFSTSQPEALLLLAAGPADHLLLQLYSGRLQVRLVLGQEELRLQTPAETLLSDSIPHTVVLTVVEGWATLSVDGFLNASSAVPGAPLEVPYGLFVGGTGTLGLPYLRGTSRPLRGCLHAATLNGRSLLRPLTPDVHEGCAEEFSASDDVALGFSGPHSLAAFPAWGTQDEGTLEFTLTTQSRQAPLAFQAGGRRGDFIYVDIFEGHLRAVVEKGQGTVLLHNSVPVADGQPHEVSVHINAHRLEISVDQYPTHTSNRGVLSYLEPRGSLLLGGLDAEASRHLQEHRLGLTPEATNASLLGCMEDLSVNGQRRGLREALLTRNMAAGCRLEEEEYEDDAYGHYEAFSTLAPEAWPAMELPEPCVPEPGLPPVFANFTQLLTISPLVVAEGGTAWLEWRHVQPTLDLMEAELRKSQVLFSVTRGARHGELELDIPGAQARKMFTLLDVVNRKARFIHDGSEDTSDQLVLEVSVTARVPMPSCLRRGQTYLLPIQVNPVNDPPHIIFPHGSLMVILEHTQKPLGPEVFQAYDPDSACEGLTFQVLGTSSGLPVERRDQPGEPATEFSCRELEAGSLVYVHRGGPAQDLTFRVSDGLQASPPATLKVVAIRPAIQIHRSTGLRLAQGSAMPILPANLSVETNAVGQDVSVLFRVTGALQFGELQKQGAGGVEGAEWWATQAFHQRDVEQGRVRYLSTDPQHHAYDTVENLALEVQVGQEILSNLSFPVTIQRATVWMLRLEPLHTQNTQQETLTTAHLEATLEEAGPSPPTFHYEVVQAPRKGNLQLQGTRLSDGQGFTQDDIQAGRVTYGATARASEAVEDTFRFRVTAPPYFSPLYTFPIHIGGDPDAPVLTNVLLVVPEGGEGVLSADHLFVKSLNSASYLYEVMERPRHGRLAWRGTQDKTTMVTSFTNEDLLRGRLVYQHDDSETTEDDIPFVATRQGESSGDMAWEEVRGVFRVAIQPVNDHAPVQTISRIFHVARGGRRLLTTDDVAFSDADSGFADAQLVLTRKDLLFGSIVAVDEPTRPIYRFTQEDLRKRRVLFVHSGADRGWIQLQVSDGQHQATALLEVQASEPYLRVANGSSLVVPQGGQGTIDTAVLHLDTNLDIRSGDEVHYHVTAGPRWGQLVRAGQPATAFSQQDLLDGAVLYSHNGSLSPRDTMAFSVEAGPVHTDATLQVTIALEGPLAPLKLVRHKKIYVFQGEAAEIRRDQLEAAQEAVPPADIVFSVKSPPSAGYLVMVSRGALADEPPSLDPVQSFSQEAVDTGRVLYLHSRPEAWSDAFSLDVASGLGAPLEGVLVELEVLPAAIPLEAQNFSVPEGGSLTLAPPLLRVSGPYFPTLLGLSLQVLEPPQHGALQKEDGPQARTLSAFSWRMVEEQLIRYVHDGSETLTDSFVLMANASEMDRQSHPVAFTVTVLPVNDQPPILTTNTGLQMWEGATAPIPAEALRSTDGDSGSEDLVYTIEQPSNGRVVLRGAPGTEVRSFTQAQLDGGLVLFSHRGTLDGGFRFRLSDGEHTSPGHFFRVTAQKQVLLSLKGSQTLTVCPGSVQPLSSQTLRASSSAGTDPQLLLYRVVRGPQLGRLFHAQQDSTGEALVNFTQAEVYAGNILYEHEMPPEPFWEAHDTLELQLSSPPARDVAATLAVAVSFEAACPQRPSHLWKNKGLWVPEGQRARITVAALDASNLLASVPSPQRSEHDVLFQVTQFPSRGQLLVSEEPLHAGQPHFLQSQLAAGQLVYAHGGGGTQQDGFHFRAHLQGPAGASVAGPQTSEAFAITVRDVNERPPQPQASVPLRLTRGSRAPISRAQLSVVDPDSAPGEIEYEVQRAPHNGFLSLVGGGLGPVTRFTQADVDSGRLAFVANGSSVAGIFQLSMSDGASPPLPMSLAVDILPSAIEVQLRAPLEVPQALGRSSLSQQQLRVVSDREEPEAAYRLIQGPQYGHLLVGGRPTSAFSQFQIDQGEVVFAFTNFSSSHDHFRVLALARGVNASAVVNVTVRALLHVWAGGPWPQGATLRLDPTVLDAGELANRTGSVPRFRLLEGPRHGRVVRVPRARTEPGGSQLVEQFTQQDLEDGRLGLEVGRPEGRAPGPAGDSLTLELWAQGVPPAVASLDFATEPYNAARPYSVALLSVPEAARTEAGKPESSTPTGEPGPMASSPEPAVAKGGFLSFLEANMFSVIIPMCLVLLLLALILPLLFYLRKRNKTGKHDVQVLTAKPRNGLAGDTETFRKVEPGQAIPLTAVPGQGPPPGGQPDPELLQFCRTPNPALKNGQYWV

B1: anti-CD20/anti-CD3 TCB molecule B: "2+1 IgG CrossFab, inverted" with charge modifications (VH/VL exchange in CD3 binder, charge modification in CD20 binders) (bispecific antibody)
heavy 1: not shown
heavy 2: QVQLVQSGAEVKKPGSSVKVSCKASGYAFSYSWINWVRQAPGQGLEWMGRIFPGDGDTDYNGKFKGRVTITADKSTSTAYMELSSLRSEDTAVYYCARNVFDGYWLVYWGQGTLVTVSSASTKGPSVFPLAPSSKSTSGGTAALGCLVEDYFPEPVTVSWNSGALTSGVHTFPAVLQSSGLYSLSSVVTVPSSSLGTQTYICNVNHKPSNTKVDEKVEPKSCDKTHTCPPCPAPEAAGGPSVFLFPPKPKDTLMISRTPEVTCVVVDVSHEDPEVKFNWYVDGVEVHNAKTKPREEQYNSTYRVVSVLTVLHQDWLNGKEYKCKVSNKALGAPIEKTISKAKGQPREPQVCTLPPSRDELTKNQVSLSCAVKGFYPSDIAVEWESNGQPENNYKTTPPVLDSDGSFFLVSKLTVDKSRWQQGNVFSCSVMHEALHNHYTQKSLSLSP
light 1: DIVMTQTPLSLPVTPGEPASISCRSSKSLLHSNGITYLYWYLQKPGQSPQLLIYQMSNLVSGVPDRFSGSGSGTDFTLKISRVEAEDVGVYYCAQNLELPYTFGGGTKVEIKRTVAAPSVFIFPPSDRKLKSGTASVVCLLNNFYPREAKVQWKVDNALQSGNSQESVTEQDSKDSTYSLSSTLTLSKADYEKHKVYACEVTHQGLSSPVTKSFNRGEC
light 2: EVQLLESGGGLVQPGGSLRLSCAASGFTFSTYAMNWVRQAPGKGLEWVSRIRSKYNNYATYYADSVKGRFTISRDDSKNTLYLQMNSLRAEDTAVYYCVRHGNFGNSYVSWFAYWGQGTLVTVSSASVAAPSVFIFPPSDEQLKSGTASVVCLLNNFYPREAKVQWKVDNALQSGNSQESVTEQDSKDSTYSLSSTLTLSKADYEKHKVYACEVTHQGLSSPVTKSFNRGEC
notes: Bivalent for CD20, monovalent for CD3; also called CD20 TCB; CD20 TCB_2+1_with charges, inverted
Consider B1, for which, in the experiment with human CD20 [1], the “EC50 of tumor cell lysis (LDH release), Z138 cells + human PBMCs, 21-24 h, panel A” value amounted to 2.18 pM and the “EC50 of tumor cell lysis (LDH release), Z138 cells + human PBMCs, 21-24 h, panel B” value came out at 0.96 pM. Besides, the “EC50 of CD3 activation, Jurkat-NFAT reporter cells co-cultured with Z138 cells (luminescence, 6 h)” value with human CD3 [2] was 29 pM. Also, in the experiment with human CD20 [3], the EC50 (commonly the concentration needed to bring the measured effect to its halfway point) stood at 4800 pM. Further, a half-maximal effect with cynomolgus monkey CD20 (EC50) was put at 3300 pM. For the same molecule, in the experiment with human CD20 [4], the “EC50 24 h of tumor lysis, Ocly-18 cells” value was 0.3 pM; the “EC50 24 h of tumor lysis, SU-DHL-5 cells” value was 1.2 pM; the “EC50 24 h of tumor lysis, SU-DHL-8 cells” value is 0.5 pM; the “EC50 24 h of tumor lysis, U2932 cells” value stood at 0.9 pM. The molecule further gave a concentration for a half-maximal effect (EC50) with human CD20 [5] of 980 pM. For the same molecule, the “EC50 24 h of B cell depletion in normal human whole blood” value with human CD20 [6] turned out to be 13.2 pM. For the same molecule, in the experiment with human CD3 [7], the EC50 was approximately 12500 pM. In the experiment with human CD20 [8], the “EC50 24 h of CD4 T cell activation, Z138 cells (average of 3 donors)” value is 1.2 pM; the “EC50 24 h of CD8 T cell activation, Z138 cells (average of 3 donors)” value amounted to 2.2 pM; the “EC50 24 h of tumor lysis, Z138 cells (average of 3 donors)” value turned out to be 1.6 pM.

B2: anti-Her3/anti-CD3 "2+1 IgG CrossFab" molecule with charge modifications (Her3 TCB) (bispecific antibody)
chain 1: not shown
chain 2: QVQLVQSGAEVKKPGASVKVSCKASGYTFRSSYISWVRQAPGQGLEWMGWIYAGTGSPSYNQKLQGRVTMTTDTSTSTAYMELRSLRSDDTAVYYCARHRDYYSNSLTYWGQGTLVTVSSASTKGPSVFPLAPSSKSTSGGTAALGCLVEDYFPEPVTVSWNSGALTSGVHTFPAVLQSSGLYSLSSVVTVPSSSLGTQTYICNVNHKPSNTKVDEKVEPKSCDKTHTCPPCPAPEAAGGPSVFLFPPKPKDTLMISRTPEVTCVVVDVSHEDPEVKFNWYVDGVEVHNAKTKPREEQYNSTYRVVSVLTVLHQDWLNGKEYKCKVSNKALGAPIEKTISKAKGQPREPQVCTLPPSRDELTKNQVSLSCAVKGFYPSDIAVEWESNGQPENNYKTTPPVLDSDGSFFLVSKLTVDKSRWQQGNVFSCSVMHEALHNHYTQKSLSLSP
chain 3: not shown
light: EVQLLESGGGLVQPGGSLRLSCAASGFTFSTYAMNWVRQAPGKGLEWVSRIRSKYNNYATYYADSVKGRFTISRDDSKNTLYLQMNSLRAEDTAVYYCVRHGNFGNSYVSWFAYWGQGTLVTVSSASVAAPSVFIFPPSDEQLKSGTASVVCLLNNFYPREAKVQWKVDNALQSGNSQESVTEQDSKDSTYSLSSTLTLSKADYEKHKVYACEVTHQGLSSPVTKSFNRGEC
As for B2, in the experiment with human Her3, the “EC50 of Caspase 3/7 activity (luminescence) in KPL-4-Caspase-3/7 GloSensor target cells + PBMCs, 6.5 h” value came to 0.7 pM; the “EC50 of tumor cell lysis (LDH release), KPL4 cells + human PBMCs, 24 h” value was found to be 2.54 pM; the “EC50 of tumor cell lysis (LDH release), KPL4 cells + human PBMCs, 48 h” value was determined as 0.53 pM. For the same molecule, the “EC50 of activation of Jurkat-NFAT reporter cells co-cultured with KPL4 cells (luminescence, 5 h)” value with human CD3 [9] was found to be 22 pM.

B3: anti-MCSP/anti-CD3 "(Fab)2-CrossFab" molecule with charge modifications in the MCSP binders ((Fab)2-XFab-LC007cv) (bispecific antibody)
chain 1: EVQLQESGPGLVKPSQSLSLTCSVTGYSITSGYYWNWIRQFPGNKLEWMGYITYDGSNNYNPSLKNRISITRDTSKNQFFLKLNSVTTEDTATYYCADFDYWGQGTTLTVSSASTKGPSVFPLAPSSKSTSGGTAALGCLVEDYFPEPVTVSWNSGALTSGVHTFPAVLQSSGLYSLSSVVTVPSSSLGTQTYICNVNHKPSNTKVDEKVEPKSCDGGGGSGGGGSEVQLQESGPGLVKPSQSLSLTCSVTGYSITSGYYWNWIRQFPGNKLEWMGYITYDGSNNYNPSLKNRISITRDTSKNQFFLKLNSVTTEDTATYYCADFDYWGQGTTLTVSSASTKGPSVFPLAPSSKSTSGGTAALGCLVEDYFPEPVTVSWNSGALTSGVHTFPAVLQSSGLYSLSSVVTVPSSSLGTQTYICNVNHKPSNTKVDEKVEPKSCDGGGGSGGGGSDIQMTQSPSSLSASVGDRVTITCRASQDIRNYLNWYQQKPGKAPKLLIYYTSRLESGVPSRFSGSGSGTDYTLTISSLQPEDFATYYCQQGNTLPWTFGQGTKVEIKSSASTKGPSVFPLAPSSKSTSGGTAALGCLVKDYFPEPVTVSWNSGALTSGVHTFPAVLQSSGLYSLSSVVTVPSSSLGTQTYICNVNHKPSNTKVDKKVEPKSC
chain 2: EVQLVESGGGLVQPGGSLRLSCAASGYSFTGYTMNWVRQAPGKGLEWVALINPYKGVSTYNQKFKDRFTISVDKSKNTAYLQMNSLRAEDTAVYYCARSGYYGDSDWYFDVWGQGTLVTVSSASVAAPSVFIFPPSDEQLKSGTASVVCLLNNFYPREAKVQWKVDNALQSGNSQESVTEQDSKDSTYSLSSTLTLSKADYEKHKVYACEVTHQGLSSPVTKSFNRGEC
chain 3: DIVLTQSPSSLSASLGDRVTISCSASQGIRNYLNWYQQRPDGTVKLLIYYTSSLHSGVPSRFSGSGSGTDYSLTISNLEPEDIATYYCQQYSKLPWTFGGGTKLEIKRTVAAPSVFIFPPSDRKLKSGTASVVCLLNNFYPREAKVQWKVDNALQSGNSQESVTEQDSKDSTYSLSSTLTLSKADYEKHKVYACEVTHQGLSSPVTKSFNRGEC
notes: The chains are one heavy chain, the anti-MCSP Fab light chain (twice); No Fc domain
As for B3, in experiment [10], the “EC50 of tumor cell lysis (LDH release), MV-3 cells + human PBMCs, 24 h” value was 2.8 pM and the “EC50 of tumor cell lysis (LDH release), MV-3 cells + human PBMCs, 48 h” value was 8.6 pM. Also, in the experiment with human CD3 [11], the binding result was “binds”. In addition, the midpoint of the response in experiment [12], the EC50, lay at 2300 pM.
